Source: US20240287172A1 (SCIRHOM, published 2024)
Numbering of substitutions follows the chain as printed.

T1: hiR2-FL-F588A-T7 (human, UniProt Q6PJF5 1-856)
T1 sequence: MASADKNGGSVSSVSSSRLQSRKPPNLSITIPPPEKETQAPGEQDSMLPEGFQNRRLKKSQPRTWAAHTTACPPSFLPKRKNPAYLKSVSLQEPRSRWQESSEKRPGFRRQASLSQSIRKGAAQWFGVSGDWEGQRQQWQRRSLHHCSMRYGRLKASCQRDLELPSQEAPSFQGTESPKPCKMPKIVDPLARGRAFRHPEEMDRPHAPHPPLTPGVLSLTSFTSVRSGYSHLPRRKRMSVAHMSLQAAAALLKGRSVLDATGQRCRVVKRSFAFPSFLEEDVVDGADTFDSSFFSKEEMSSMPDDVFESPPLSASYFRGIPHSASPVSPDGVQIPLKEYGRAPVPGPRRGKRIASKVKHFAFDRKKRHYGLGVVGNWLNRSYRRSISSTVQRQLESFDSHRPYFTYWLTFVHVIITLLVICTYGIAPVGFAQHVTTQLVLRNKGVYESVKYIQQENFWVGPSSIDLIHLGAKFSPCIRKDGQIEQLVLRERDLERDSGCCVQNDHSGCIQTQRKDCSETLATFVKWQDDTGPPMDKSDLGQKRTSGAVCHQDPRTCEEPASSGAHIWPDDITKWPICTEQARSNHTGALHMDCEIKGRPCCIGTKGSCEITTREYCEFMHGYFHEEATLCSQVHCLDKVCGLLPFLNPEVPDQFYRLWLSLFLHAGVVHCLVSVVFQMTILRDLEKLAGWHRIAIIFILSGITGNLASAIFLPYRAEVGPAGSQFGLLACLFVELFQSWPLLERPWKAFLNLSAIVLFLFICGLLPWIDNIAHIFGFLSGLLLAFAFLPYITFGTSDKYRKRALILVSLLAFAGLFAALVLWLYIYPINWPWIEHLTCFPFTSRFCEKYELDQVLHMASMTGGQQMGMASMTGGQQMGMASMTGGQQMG

T2: hiR2-FL-R582A-T7 (human, UniProt Q6PJF5 1-856)
T2 sequence: T1 sequence with R582A, A588F

B1: antibody 48 (antibody, V domains shown)
VH: QVQLQQSGTELVRPGTSVKVSCKASGYAFTNYLIEWVKQRPGQGLEWIGVINPGSGFTKYNEKFKGKATLTADKSSSTVYMHLSSLTSEDSAVYFCARGLYRAMDYWGQGTSVTVSS
VL: DIQMTQSPASQSASLGESVTITCLASQTIATWLAWYQQKPGKSPQLLIYGATTLADGVPSRFSGGGSGTKFSFKISSLQAEDFVSYYCQQLYSTPYTFGGGTKLEIK
notes: mouse IgG, kappa light chain; also called clone #48; purified antibody 48
B2: antibody 3 (antibody, V domains shown)
VH: QVTLKESGPGILQPSQTLSLTCSFSGFSLTTFAMGIGWVRQPSGKGLEWLAHIWWDGEKYNNPVLKSRLTISKDTSKNQVFLRIANVDTPDTATYYCARISSIYYIIDNWGQGTSVTVSS
VL: DIVLTQSPATLSVTPGHSVSLSCRASQSISNNLHWYQKKSHESPRLLIKYVSQSISGIPSRFSGSGSGTDFTLSINSVETEDFGMYFCQQSYNWPLTFGAGTKLELK
notes: mouse IgG, kappa light chain; also called clone #3; purified antibody 3

What was measured:
hiR2-FL-F588A-T7 = target: T1, hiR2-FL-F588A-T7; experiment: FACS on MEF-DKO cells expressing the variant, 3 µg/ml antibody
Outline: (§1)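 Two incubations on ice, each 1 hour: test antibody (3 μg/ml) or FACS buffer only, then PE anti-mouse F(ab′)2 at 1:100 in the dark. Centrifugation and washes used 4° C; staining quantified on a flow cytometer.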

hiR2-FL-R582A-T7 = target: T2, hiR2-FL-R582A-T7; experiment: as above
Outline: as §1

| Binder | loss of binding vs wild type (hiR2-FL-F588A-T7) [%] | loss of binding vs wild type (hiR2-FL-R582A-T7) [%] |
| --- | --- | --- |
| B1 | ≥ 30 |  |
| B2 |  | ≥ 30 |
